Here are results for 5 molecules from patent publication US20150353909A1 (ACADEMIA SINICA, published 2015).

Experiment [1] deals with T1, Lys63-linked UB chains (Ub2-7) (UniProt P0CG48 1-76, isopeptide bond between the C-terminus of the distal UB and Lys63 of the proximal UB).
T1 construct: Bought mixture of chain lengths Ub2-7; also called K63-linked UB chains; K63-linked ubiquitin chains
Briefly: GST pull-down, immunoblot. From the text: (§1) The GST pull-down assay and the detection of pulled-down products by immunoblotting has been previously described (Fatimababy et al., (2010) FEBS J. 277, 796-816; Lin et al., (2011) Plant Cell 23, 2754-2773). The Lys48- and Lys63-linked UB chains (Ub2-7) were purchased from Boston Biochem.

For experiment [2], the target named is T2, Lys48-linked UB chains (Ub2-7) (UniProt P0CG48 1-76, isopeptide bond between the C-terminus of the distal UB and Lys48 of the proximal UB).
T2 construct: Bought mixture of chain lengths Ub2-7; also called K48-linked UB chains; K48-linked ubiquitin chains
Briefly: GST pull-down, immunoblot.
Description: as §1
Background: Immunoblotting shows a protein as a band on a membrane.

B1: GST-OTU7a (enzyme)
chain: MAKTKQQKSKPKKQPHQKQGKDCDLSQFRAQLDALGLKIIQVTADGNCFFRAIADQLEGNEDEHNKYRNMIVLYIVKNREMFEPFIEDDVPFEDYCKTMDDDGTWAGNMELQAASLVTRSNICIHRNMSPRWYIRNFEDTRTRMIHLSYHDGEHYNSVRSKEDACGGPARPVVIEADAKVSAASKQAKATESKSKNKADKCHVNAGAIKVVMSGSCCDNTEKAEQVLLQVNGDVDAAIEFLIADQGMESLTENDTETASASDTINPKHASDSPMENTEQAREELIEEESASGNNSETVQAKCTTQTDDKKIPRNKTCPCGSKKKYKSCCGTATGRSSVKLLVSQTMESKKGRKNLRRGTSNEVEANAPDVGALCI
notes: Full-length coding region in pET42, expressed in E. coli; also called OTU7a (GST fusion); not shown: GST and His tags from pET42 vector
As for B1, the binding result in experiment [1] and in experiment [2] was “no binding” throughout.

B2: GST-OTU9 (enzyme)
chain: MGYEPDPDALRWGLHDLEVCTLTNAGSCSSVTRYESGGGGTQGYVREGYNQPVTGYVDNDAVIAQFYQDELSRVARAEASGINSLSPTSVVAQDWPHPHQGQENQGEAIDITQESDILHNHNGNMEDKNVARIRFEGGQSSPSRDDDSVCSVEIEEESWSEVGKRLNQMIPIAHVPKINGELPSEDEQISDHERLFQRLQLYGLVENKIEGDGNCQFRSLSDQLYRSPEHHNFVREQVVNQLAYNREIYEGYVPMAYNDYLKAMKRNGEWGDHVTLQAAADLFGVRMFVITSFKDTCYIEILPHFQKSNRLICLSFWAEVHYNSIYPEGELPIPEGKKKKKYWVF
notes: Full-length coding region in pET42, expressed in E. coli; also called OTU9 (GST fusion); not shown: GST and His tags from pET42 vector
As to B2, the binding result in experiment [1] and in experiment [2] was “no binding” each time.

B3: GST-OTU4c (enzyme)
chain: MMICYSPITTCSRNAISIKRHLGSRLYGVVAHGSSKFSCYSLLSGLSRRHYTGFRVSVSNRPSSWHDKGLFGFAYTGVIVSLLVCYSSTSQSAYADSSRDKDANNVHHHSSDGKFHNGKRVYTDYSIIGIPGDGRCLFRSVAHGFCLRSGKLAPGEKMQRELADELRTRVADEFIQRRQETEWFVEGDFDTYVRQIRDPHVWGGEPELFMASHVLQMPITVYMKDDKAGGLISIAEYGQEYGKDDPIRVLYHGFGHYDALLLHESKASIPKSKL
notes: Full-length coding region in pET42, expressed in E. coli; also called OTU4c (GST tag); not shown: GST and His tags from pET42 vector
Take B3: the binding result in experiment [1] and in experiment [2] was “no binding” in each case.

B4: GST-OTU10 (enzyme)
chain: MVSHEENTSIVEWFLGPHPYTYPPYGIEMIHEDDEVAVAHHHHHHQSGEYYREYEDHRSSDVDNDEIIARTLQDDFLQLEIAESNDYSHQNQQQQHQQEGYTNNYSNNNNGYAWNDQSPAVDYSSEWIGNDNDQDGRSDDSVNVFSCSSPSDTDEYVYSWESDQCDADGEFGRRLNQMVPIPYIPKINGEIPPEEEAVSDHERLRNRLEMFDFTEVKVPGDGNCQFRALADQLYKTADRHKHVRRQIVKQLKSRPDSYQGYVPMDFSDYLRKMSRSGEWGDHVTLQAAADAYRVKIVVLTSFKDTCYIEILPTSQESKGVIFLSFWAEVHYNAIYLNRDTSETELQRKRKWWRFGN
notes: also called OTU10 (GST tag); not shown: GST and His tags from pET42 vector
With B4, the binding result in experiment [1] and in experiment [2] was “no binding” each time.

B5: GST-OTU3 (enzyme)
chain: MELKSSSNNNILEQLRNGFARFELVSSPTASVSDSISSTSLPASFISTTKGNSYVFFARINSSMNRSPAAKKVEKYAVDRVKGDGRCLFRALVKGMAFNKGITLNPQRERDDADELRMAVKEVICNDPKEREKYKEALVAITVDESLKRFCQRIGRHDFWGGESELLVLSKLCKQPIIVYIPEHEHGRGGGYGPGFIPIQEYGSEFRGGWGKGKTNKNVVRLLYSGRNHYDLLR
notes: Full-length coding region in pET42, expressed in E. coli; also called OTU3 (GST fusion); not shown: GST and His tags from pET42 vector
Regarding B5, the binding result in experiment [1] and in experiment [2] was “no binding” in each case.
